{"source": "paper PMC10648076", "about": "“Statistical Improvement of rGILCC 1 and rPOXA 1B Laccases Activity Assay Conditions Supported by Molecular Dynamics” (Molecules, 2023)", "proteins": {"B1": {"name": "rPOXA 1B (Pleurotus ostreatus) (protein)", "chain": "SIGPRGTLNIANKVIQPDGFYRSTVLAGGSYPGPLIKGKTGDRFQINVVNKLADTSMPVDTSIHWHGLFVKGHNWADGPAMVTQCPIVPGHSFLYDFEVPDQAGTFWYHSHLGTQYCDGLRGPLVVYSKNDPHKRLYDVDDESTVLTVGDWYHAPSLSLTGVPHPDSTLFNGLGRSLNGPASPLYVMNVVKGKRYRIRLINTSCDSNYQFSIDGHTFTVIEADGENTQPLQVDQVQIFAGQRYSLVLNANQAVGNYWIRANPNSGDPGFENQMNSAILRYKGARSIDPTTPEQNATNPLHEYNLRPLIKKPAPGKPFPGGADHNINLNFAFDPATALFTANNHTFVPPTVPVLLQILSGTRDAHDLAPAGSIYDIKLGDVVEITMPALVFAGPHPIHLHGHTFAVVRSAGSSTYNYENPVRRDVVSIGDDPTDNVTIRFVADNAGPWFLHCHIDWHLDLGFAVVFAEGVNQTAAANPVPEAWNNLCPIYNSSNPSKLLMGTNAIGRLPAPLKA", "notes": "secreted from Pichia pastoris/pGAPZαA-LaccPost-Stop (Clone 1); recombinant culture concentrate, not purified"}}, "substrate": "CCn1c(=NN=c2sc3cc(S(=O)(=O)O)ccc3n2CC)sc2cc(S(=O)(=O)O)ccc21", "experiment": "spectrophotometric ABTS oxidation; Michaelis-Menten fit", "format": "biochemical, Pleurotus ostreatus", "conditions": "100 mM sodium citrate buffer, pH 3.0 ± 0.2, 25 °C, apparent constant, enzyme concentrate", "from_the_text": "spectrophotometric ABTS oxidation; Michaelis-Menten fit on rPOXA 1B", "data": [{"protein": "B1", "values": [{"measurement": "Km", "result": 37.2, "unit": "µM"}, {"measurement": "Vmax", "result": 10.5, "unit": "µM/min"}]}]}
